Laboratory results as given in patent US20180244756A1 (US Dept. of Health and Human Services, published 2018).

Molecular target: T1, MERS-CoV S-[change] protein, England1 strain (MERS-CoV, England1 strain, UniProt K9N5Q8 19-1290)
T1 sequence: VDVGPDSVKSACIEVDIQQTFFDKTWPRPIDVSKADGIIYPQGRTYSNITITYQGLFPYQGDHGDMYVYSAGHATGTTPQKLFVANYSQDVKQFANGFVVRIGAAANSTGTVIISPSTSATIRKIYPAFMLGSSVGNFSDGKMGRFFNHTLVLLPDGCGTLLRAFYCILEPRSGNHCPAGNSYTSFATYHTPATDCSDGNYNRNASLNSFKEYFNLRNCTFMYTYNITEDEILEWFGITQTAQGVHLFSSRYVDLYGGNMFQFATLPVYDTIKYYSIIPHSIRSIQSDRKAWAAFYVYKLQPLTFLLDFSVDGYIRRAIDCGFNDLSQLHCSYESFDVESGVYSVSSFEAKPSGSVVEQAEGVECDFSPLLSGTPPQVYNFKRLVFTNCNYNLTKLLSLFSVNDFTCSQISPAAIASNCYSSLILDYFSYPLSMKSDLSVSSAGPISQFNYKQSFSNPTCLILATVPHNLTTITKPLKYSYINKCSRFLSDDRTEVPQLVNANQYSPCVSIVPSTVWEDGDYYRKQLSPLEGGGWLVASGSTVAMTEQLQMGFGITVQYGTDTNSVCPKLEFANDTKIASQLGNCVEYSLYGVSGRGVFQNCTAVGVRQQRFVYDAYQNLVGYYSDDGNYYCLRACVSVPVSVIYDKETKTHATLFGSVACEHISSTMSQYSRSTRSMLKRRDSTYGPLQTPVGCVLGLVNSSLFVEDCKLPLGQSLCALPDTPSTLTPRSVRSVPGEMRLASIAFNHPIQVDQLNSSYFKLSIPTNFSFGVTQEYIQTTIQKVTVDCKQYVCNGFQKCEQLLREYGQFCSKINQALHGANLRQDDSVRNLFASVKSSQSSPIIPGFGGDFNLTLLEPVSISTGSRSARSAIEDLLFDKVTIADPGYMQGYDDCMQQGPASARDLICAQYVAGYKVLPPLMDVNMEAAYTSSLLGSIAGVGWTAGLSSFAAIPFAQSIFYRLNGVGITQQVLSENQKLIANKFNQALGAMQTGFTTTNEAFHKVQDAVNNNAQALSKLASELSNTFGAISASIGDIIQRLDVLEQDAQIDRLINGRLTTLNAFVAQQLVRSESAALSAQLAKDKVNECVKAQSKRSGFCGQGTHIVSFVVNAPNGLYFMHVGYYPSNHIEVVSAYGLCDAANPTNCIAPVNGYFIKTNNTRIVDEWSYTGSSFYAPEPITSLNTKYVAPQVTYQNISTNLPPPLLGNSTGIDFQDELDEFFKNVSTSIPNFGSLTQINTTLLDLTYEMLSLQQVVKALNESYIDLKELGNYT
Test: ELISA, hybridoma supernatant

| Binder | ELISA (unit not given) |
| --- | --- |
| G2 antibody (antibody, V domains shown) VH: QVQLQQSGGELVKPGASVKLSCKTSGFTFSSSYISWLKQKPGQSLEWIAWIYAGTGGTEYNQKFTGKAQVTVDTSSSTAYMQFSSLTTEDSAIYYCARGGSSFAMDYWGQGTSVTVSS VL: not shown | 0.58 |
| G4 antibody (antibody, V domains shown) VH: QVQLQQSGPELVRPGVSVKISCKGSGYTFTDYAIHWVKQSHAKSLEWIGVFSTYYGNTNYNQKFKGRATMTVDKSSSTAYMELARLTSEDSAIYYCARKSYYVDYVDAMDYWGQGTSVTVSS VL: not shown | 2.8 |
